# In publication PMC9712175:
# Biological target: extracellular domain (ECD) of human insulin-like growth factor-1 receptor (hIGF-1R) (human) (UniProt P08069)
# Assay: other fluorescence titration
# UniProt P08069, sequence (P08069 741-935): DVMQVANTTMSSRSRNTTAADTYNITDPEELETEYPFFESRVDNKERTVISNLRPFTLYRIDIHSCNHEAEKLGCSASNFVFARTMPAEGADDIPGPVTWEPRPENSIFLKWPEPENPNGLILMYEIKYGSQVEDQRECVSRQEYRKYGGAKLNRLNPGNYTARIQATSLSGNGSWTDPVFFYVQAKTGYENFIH
substance,measurement,value
full-length human insulin-like growth factor 1 (hIGF1) (from UniProt P05019 22-118) (ligand),Kd,90 nM
